Target: the molecule itself
Assay: cross-linking

B1: Xenopus Nudt16 protein (X29) (enzyme, Xenopus laevis)
chain: MAESRSPDRGAKEDKPRPRNISREESLQLEGYKHACHALLHAPSQAKLFDRVPIRRVLLMMMRFDGRLGFPGGFVDTRDISLEEGLKRELEEELGPALATVEVTEDDYRSSQVREHPQKCVTHFYIKELKLEEIERIEAEAVNAKDHGLEVMGLIRVPLYTLRDRVGGLPAFLCNNFIGNSKSQLLYALRSLKLLREDQIQEVLKASHRLQY
With B1 the “stoichiometry N” value was at least 2.
